Source: PMC5066947, “Voltage-Dependent Anion Channel-1, a Possible Ligand of Plasminogen Kringle 5” (PLoS ONE, 2016)

Target: T1, recombinant voltage-dependent anion channel-1 (human, UniProt P21796 1-283)
T1 construct: human voltage-dependent anion channel-1; cDNA amplified from pCMV6-XL5-VDAC-1 with primers designed on NM_003374, cloned into pET-28b by XhoI and NheI; band at about 32 kDa on SDS-PAGE; also called VDAC-1; hVDAC-1
Assay: SPR; Kringle 5 coupled to a CM5 sensor chip by amino coupling (180 RU); VDAC-1 injected at 0 to 280.00 μmol·L^-1; uncoupled cell as reference; 25°C, 40 μl·min^-1; regeneration with 10 mmol·L^-1 HEPES pH 7.4, 300 mmol·L^-1 NaCl
Conditions: both partners purified

T1 sequence (P21796 whole entry): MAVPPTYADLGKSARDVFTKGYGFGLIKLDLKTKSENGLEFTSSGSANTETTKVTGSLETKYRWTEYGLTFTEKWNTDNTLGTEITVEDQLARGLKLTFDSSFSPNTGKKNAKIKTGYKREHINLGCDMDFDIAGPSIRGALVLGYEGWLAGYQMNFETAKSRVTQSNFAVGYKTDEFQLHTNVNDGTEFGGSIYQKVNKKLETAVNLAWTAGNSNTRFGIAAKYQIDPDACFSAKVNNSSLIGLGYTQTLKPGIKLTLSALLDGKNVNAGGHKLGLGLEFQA

B1: recombinant plasminogen Kringle 5 (domain or fragment, human)
chain: DCMFGNGKGYRGKRATTVTGTPCQDWAAQEPHRHSIFTPETNPRAGLEKNYCRNPDGDVGGPWCYTTNPRKLYDYCDVPQCAAP
notes: fifth kringle domain of plasminogen, about 80 amino acid residues; expressed from pET-28b-hK5; band at about 8 kDa on SDS-PAGE; The vector pET-28b-hK5 was built in the authors' laboratory; neither the residue limits nor the end of the 6 x His tag are told; also called hK5; source: E. coli BL21 (DE3), soluble, purified (Ni2+-chelated Sepharose 6 Fast Flow, Sephadex G-25)
- Ka: 2430 M⁻¹
